According to patent US12383572B2, “Administration of an anti-activin-a compound to a subject” (AMGEN INC., priority 2013, dated 2025):

Experiments:
[1] = test system: activin-A (βA) mRNA; test: Northern blot of activin-A (βA) mRNA in inh-KO tumors; format: in vivo, mouse; details: inh-KO mice, increase vs WT controls
Description: (§1) Total RNA was isolated from individual tissue samples after homogenization in Trizol (Invitrogen). A pool of 10 μg RNA for each group containing equal amounts of total RNA isolated from individual animals was subjected to Northern blot analysis. The northern probes used for βA and Ang-2 were generated by using RT-PCR (Phusion, Biolabs). βA primer set: 5′-CCCTTGCTTTGGCTGAGAGGA-3′ (SEQ ID NO: 294) and 5′-TC ACA GGT CGT CGT AGG TCG-3′ (SEQ ID NO: 295); Ang-2 primer set: 5′-TGT GCC GGG GAG AAG AG (SEQ ID NO: 296) and 5′-TACAGTAGTGGGTTGAGGTTC-3′ (SEQ ID NO: 297). To normalize the expression, northern blot membranes were re-probed with β-actin.

[2] = test system: E-cadherin; test: E-cadherin Western blot and immunostaining in inh-KO ovarian tumors; format: in vivo, mouse; details: inh-KO mice
Description: (§2) Protein extracts were prepared from cell cultures or tissues in T-PER tissue protein extraction reagent (Pierce) containing a mixture of protease inhibitors (Roche). A pool of 50 μg total protein for each group containing equal amounts of protein extract isolated from individual animals was separated by NuPAGE 4-12% Bis-Tris gel (Invitrogen) and transferred to PVDF. The membranes were probed with primary antibodies against total Smad2, p-Smad2 or E-cadherin (1:1000; Cell Signaling), endoglin, osteopontin (1:500; R & D Systems), IGFBP-1, IGFBP-2 (1:500; Abcam) followed by HRP-conjugated secondary antibody (1:2000; Cell Signaling). The membranes were stripped and re-probed with antibody against α-tubulin (1:1000; Cell Signaling).
Zinc-formalin fixed paraffin tumor tissue sections of 4 μm in thickness were prepared. The sections were subjected to antigen retrieval by microwave 3 min in Unmask solution (Vector H-3300) followed by incubation in 10 μg/ml Proteinase-K for 20 min and in 1% H2O2 in dH2O for 10 min at room temperature. The sections were further incubated in 0.1% Tween-20 in PBS for 3 min to permeabilize the cell membrane and in goat serum for 30 min to block non-specific binding. […] The immunostained tissue sections were analyzed and photographed using a Nikon Eclipse 90i microscope equipped with DS-Ril camera. […]

[3] = test system: Ang-2 mRNA; test: Northern blot of Ang-2 mRNA in inh-KO tumors; format: in vivo, mouse; details: ovarian and testicular tumors, inh-KO mice
Description: as §1

[4] = test system: endoglin, osteopontin, IGFBP-1, and IGFPB-2; test: Western blot of endoglin, osteopontin, IGFBP-1, IGFBP-2 in inh-KO ovarian tumors; format: in vivo, mouse; details: inh-KO mice
Description: as §2

[5] = test system: caspase-3; test: Active caspase-3 immunostaining of inh-KO tumor sections; format: in vivo, mouse; details: ovarian and testicular tissue sections, regions of residual tumor cells
Description: Zinc-formalin fixed paraffin tumor tissue sections of 4 μm in thickness were prepared. The sections were subjected to antigen retrieval by microwave 3 min in Unmask solution (Vector H-3300) followed by incubation in 10 μg/ml Proteinase-K for 20 min and in 1% H2O2 in dH2O for 10 min at room temperature. The sections were further incubated in 0.1% Tween-20 in PBS for 3 min to permeabilize the cell membrane and in goat serum for 30 min to block non-specific binding. The sections were then incubated at room temperature with specific primary antibody for 3 hours followed by incubation in biotinylated or fluorescently labeled secondary antibody. Substrate developed in Vector SG kit (SK-4700) or DAB and nuclear-counterstained in Vector Fast Red (H-3403) or in hematoxylin. The immunostained tissue sections were analyzed and photographed using a Nikon Eclipse 90i microscope equipped with DS-Ril camera. The primary antibodies used and their dilutions are as follows: VEGF (BD Pharmingen 550549) 1:20 or VEGF (Abcam ab46154) 1:100, active caspase-3 (Abcam ab32042) 1:50, Ang-1 (Abcam ab8451) 1:500, osteopontin (Abcam ab8448) 1:200, CD-31 (Abcam ab56299) 1:100, E-cadherin (Abcam ab76319) 1:80. For immunofluorescence staining, FITC-conjugated secondary antibody (Invitrogen) was added at 1:50 dilution in PBS and incubated for 30 min. Cell nuclei were counterstained with Vectashield PE (Vector).

[6] = test system: TOV-21G xenografts; test: TOV-21G xenograft, sActRIIB and 5-FU chemotherapy combination; format: in vivo, human; details: nude mice; sActRIIB 10 mg/kg SC 1x/week, 5-FU 50 mg/kg IP 3 cycles, alone or together
Description: TOV-21G xenograft. 5×10^6 TOV-21G ovarian cancer cells were implanted subcutaneously into individual female athymic nu/nu mice (Harlan). Treatment was initiated at day 12 after tumor implantation, when the average tumor volume reached approximately 150 mm^3. The mice received PBS, sActRIIB (30 mg/kg, SC, 1×/week) or activin-A antibody (30 mg/kg, SC, 2×/week). In a separate chemotherapy combination experiment, the mice were treated with PBS, sActRIIB (10 mg/kg, SC, 1×/week), 5-FU (50 mg/kg, IP, 3 cycles, 4 daily injections per cycle) or sActRIIB and 5-FU combination at the same doses above. For all xenograft experiments, the tumor sizes were measured longitudinally by using an electronic caliper. Immediately prior to the 1st dose, the tumor-bearing mice were randomized to ensure even distribution in tumor sizes across different groups. Tumor volumes (mm^3) were calculated as tumor length (mm)×tumor width (mm)×tumor height (mm). Tumor weights were determined by necropsy.

[7] = test system: TOV-21G xenografts; test: TOV-21G xenograft in abdominal flank, hu-sActRIIB-Fc alone or with 5-FU: tumor growth; format: in vivo, human; details: 52 days after tumor cell injection, versus vehicle-treated tumor-bearing group
Description: In another experiment, athymic nude mice received TOV-21G xenografts in the abdominal flank. After 14 days, subcutaneous hu-sActRIIB-Fc was administered weekly alone or in combination with 5-FU.

B1: sActRIIB: extracellular domain of human activin type-2B receptor fused to IgG2 Fc; full length SEQ ID NO: 21 (Table 9) (protein, listed as Homo sapiens)
chain: ETRWCIYYNANWELERTNQSGLERCEGEQDKRLHCYASWRNSSGTIELVKKGCWLDDFNCYDRQECVATEENPQVYFCCCEGNFCNERFTHLPEAGGPEVTYEPPPTAPTGGGGSVECPPCPAPPVAGPSVFLFPPKPKDTLMISRTPEVTCVVVDVSHEDPEVQFNWYVDGVEVHNAKTKPREEQFNSTFRVVSVLTVVHQDWLNGKEYKCKVSNKGLPAPIEKTISKTKGQPREPQVYTLPPSREEMTKNQVSLTCLVKGFYPSDIAVEWESNGQPENNYKTTPPMLDSDGSFFLYSKLTVDKSRWQQGNVFSCSVMHEALHNHYTQKSLSLSPGK
What does the source list for B1?
levels of βA transcripts in the tumors [1]: completely blocked; E-cadherin immunoreactivity in ovarian sections [2]: reappearance of distinctive E-cadherin immunoreactivity; E-cadherin protein in ovarian tumors (Western blot) ([2]; single injection): dramatically restored the lost E-cadherin; Ang-2 mRNA expression in tumors [3]: inhibited its overexpression; induction of endoglin, osteopontin, IGFBP-1 and IGFBP-2 proteins [4]: abolished completely; active caspase-3 immunostaining [5]: strong immunostaining of active caspase-3; rate of tumor growth [6]: decreased the rate of tumor growth significantly; tumor growth reduction [7]: 43%
